Drawing on patent publication US20070178531A1 (BIOCHECK, published 2007), this text covers A450 for one molecule.

Positions count from the first letter of the chain named.

Holding throughout (assay): ELISA, Ab 0.050 µg/ml
One assay addresses T1, Human Id1: Histidine (human, UniProt P41134 1-155, limits assumed).
T1 construct: Fusion protein made in E. coli from vector pGW07; also called h-Id1: his; not shown: His tag
T1 sequence (looked up): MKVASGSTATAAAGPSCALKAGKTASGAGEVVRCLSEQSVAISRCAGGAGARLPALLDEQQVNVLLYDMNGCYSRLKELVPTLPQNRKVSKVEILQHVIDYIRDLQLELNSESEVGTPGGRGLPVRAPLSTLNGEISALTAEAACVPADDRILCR

For a further assay, the target named is T2, Mouse Id2: Histidine (mouse, UniProt P41136 1-134, limits assumed).
T2 construct: Fusion protein made in E. coli from vector pGW07; also called m-Id2: His; not shown: His tag
T2 sequence (looked up): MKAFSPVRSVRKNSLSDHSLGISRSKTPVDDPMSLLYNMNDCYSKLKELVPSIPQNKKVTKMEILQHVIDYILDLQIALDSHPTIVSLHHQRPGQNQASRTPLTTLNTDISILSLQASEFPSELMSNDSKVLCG

The next assay addresses T3, Human Id2: Histidine (human, UniProt Q02363 1-134, limits assumed).
T3 construct: Fusion protein made in E. coli from vector pGW07; also called h-Id2: His; not shown: His tag
T3 sequence (looked up): T2 sequence (looked up) with T60S, V131A

A further assay has as its target T4, Mouse Id1: Histidine (mouse, UniProt P20067-2 1-148, limits assumed).
T4 construct: Fusion protein made in E. coli from vector pGW07; also called m-Id1-His; not shown: His tag
T4 sequence (looked up): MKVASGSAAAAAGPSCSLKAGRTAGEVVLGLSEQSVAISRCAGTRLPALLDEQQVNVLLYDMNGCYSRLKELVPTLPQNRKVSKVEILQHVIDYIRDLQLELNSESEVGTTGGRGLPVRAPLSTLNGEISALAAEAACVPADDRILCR

B1: rabbit monoclonal anti-mouse/human Id3, clone #BCH-4/#6-1 (antibody, V domains shown)
VH: QSVEESGGRLVTPGTPLTLTCTASGFSLSNVYIHWVRQAPGKGLEWIGYISDGDTARYATWAKGRFTISKTSSTTVNLKMTSLTTEDTATYFCARQGFNIWGPGTLVTVSL
VL: AVLTQTPSPVSAAVGGTVSISCQSSQSVWNNNWLSWFQQKPGQPPKLLIYETSKLESGVPSRFKGSGSGTQFTLTISDVQCDDAATYYCLGGYWTTSDNNVFGGGTEVVVK
notes: Rabbit IgG from a rabbit hybridoma; also called m/h Id3 MoAb 6-1
In the case of B1, the A450 was 0.091 A450 in the assay with Human Id1: Histidine, 0.093 A450 with Mouse Id2: Histidine, 0.086 A450 in the assay with Human Id2: Histidine and 0.093 A450 with Mouse Id1: Histidine.
